Measurements taken from US20240409647A1 (SINOMAB BIOSCIENCE, published 2024).

Tests used:
[1] = target: T1, human IL-17 receptor subunit C (human, UniProt Q8NAC3-2 21-467, limits assumed); assay: ELISA, coated receptor; SM17 at 0.4 µg/mL; well 1
T1 construct: also called IL17RC; hIL17RC
T1 sequence (looked up): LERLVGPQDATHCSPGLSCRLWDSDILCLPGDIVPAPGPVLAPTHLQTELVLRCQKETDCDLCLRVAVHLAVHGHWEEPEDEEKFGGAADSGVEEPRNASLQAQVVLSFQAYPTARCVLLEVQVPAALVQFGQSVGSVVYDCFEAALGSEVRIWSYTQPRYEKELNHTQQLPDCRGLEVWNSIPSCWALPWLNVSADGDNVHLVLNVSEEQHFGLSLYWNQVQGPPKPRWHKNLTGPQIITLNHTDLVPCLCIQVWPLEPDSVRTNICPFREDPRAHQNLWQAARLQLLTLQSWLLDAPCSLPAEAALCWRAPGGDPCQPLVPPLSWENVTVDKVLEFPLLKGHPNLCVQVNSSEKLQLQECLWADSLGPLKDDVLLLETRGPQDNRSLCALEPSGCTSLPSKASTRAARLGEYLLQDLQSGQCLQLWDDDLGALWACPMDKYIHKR

[2] = target: T2, human IL-17 receptor subunit D (human, UniProt Q8NFM7 28-299, limits assumed); assay: ELISA, coated receptor; SM17 at 0.4 µg/mL; well 1
T2 construct: also called IL17RD; hIL 17RD
T2 sequence (looked up): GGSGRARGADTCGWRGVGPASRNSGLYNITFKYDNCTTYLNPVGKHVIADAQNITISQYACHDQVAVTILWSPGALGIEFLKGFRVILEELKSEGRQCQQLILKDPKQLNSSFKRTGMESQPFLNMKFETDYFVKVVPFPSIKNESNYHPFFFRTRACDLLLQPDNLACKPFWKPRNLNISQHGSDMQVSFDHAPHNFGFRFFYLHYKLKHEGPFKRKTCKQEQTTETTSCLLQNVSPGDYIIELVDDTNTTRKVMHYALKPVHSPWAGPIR

[3] = target: T3, human IL-17 receptor subunit A (human, UniProt Q96F46 33-320); assay: ELISA, coated receptor; SM17 at 0.4 µg/mL; well 1
T3 construct: also called IL17RA; hIL17RA

[4] = target: T4, human IL-17 receptor subunit E (human, UniProt Q8NFR9 24-454, limits assumed); assay: ELISA, coated receptor; SM17 at 0.4 µg/mL; well 1
T4 construct: also called hIL17RE
T4 sequence (looked up): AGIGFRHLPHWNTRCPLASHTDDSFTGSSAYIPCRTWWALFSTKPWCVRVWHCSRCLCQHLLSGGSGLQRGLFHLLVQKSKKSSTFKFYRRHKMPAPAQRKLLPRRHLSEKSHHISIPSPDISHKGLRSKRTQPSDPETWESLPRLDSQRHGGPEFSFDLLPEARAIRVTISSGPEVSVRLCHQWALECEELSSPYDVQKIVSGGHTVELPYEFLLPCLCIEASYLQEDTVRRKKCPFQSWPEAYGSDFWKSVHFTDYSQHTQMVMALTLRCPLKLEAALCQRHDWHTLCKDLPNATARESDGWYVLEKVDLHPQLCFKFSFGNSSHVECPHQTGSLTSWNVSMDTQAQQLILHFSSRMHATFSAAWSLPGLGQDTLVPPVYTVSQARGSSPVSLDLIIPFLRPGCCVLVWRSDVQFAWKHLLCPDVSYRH

[5] = target: T5, human IL-17RB protein (recombinant, R&D systems) (human); assay: ELISA, coated receptor; SM17 at 0.4 µg/mL; well 1
T5 construct: Bought protein; also called hIL17RB
T5 sequence (Q9NRM6 whole entry, looked up): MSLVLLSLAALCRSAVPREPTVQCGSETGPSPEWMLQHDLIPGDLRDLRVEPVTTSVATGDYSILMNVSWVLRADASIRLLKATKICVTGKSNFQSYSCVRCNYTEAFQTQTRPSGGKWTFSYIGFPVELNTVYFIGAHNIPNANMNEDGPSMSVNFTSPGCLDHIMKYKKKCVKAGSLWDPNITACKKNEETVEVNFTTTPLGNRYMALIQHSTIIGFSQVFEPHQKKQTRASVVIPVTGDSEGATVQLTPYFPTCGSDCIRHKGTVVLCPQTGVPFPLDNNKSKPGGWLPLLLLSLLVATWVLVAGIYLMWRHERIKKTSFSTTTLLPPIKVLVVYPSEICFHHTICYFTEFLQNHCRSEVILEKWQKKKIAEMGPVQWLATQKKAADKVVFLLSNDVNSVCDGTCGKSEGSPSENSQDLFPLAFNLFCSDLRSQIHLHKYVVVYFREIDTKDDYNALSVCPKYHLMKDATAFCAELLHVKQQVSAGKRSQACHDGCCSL

[6] = target: T1, human IL-17 receptor subunit C; assay: ELISA, coated receptor; SM17 at 0.016 µg/mL; well 2
[7] = target: T2, human IL-17 receptor subunit D; assay: as above
[8] = target: T3, human IL-17 receptor subunit A; assay: as above
[9] = target: T6, human TSLP (R&D systems) (human, UniProt Q969D9 29-159); assay: BLI (Octet RED96), binder captured via anti-human Fab CH1, TSLP in solution
T6 construct: also called thymic stromal lymphopoietin
Procedure: Biosensors immobilized with irrelevant antibody (SM03, anti-human CD22 chimeric IgG1 antibody, SinoMab BioScience Limited, 20 μg/mL) were used as control reference.

[10] = target: T1, human IL-17 receptor subunit C; assay: ELISA, coated receptor; SM17 at 0.08 µg/mL; well 1
[11] = target: T2, human IL-17 receptor subunit D; assay: ELISA, coated receptor; SM17 at 0.08 µg/mL; well 1
[12] = target: T3, human IL-17 receptor subunit A; assay: ELISA, coated receptor; SM17 at 0.08 µg/mL; well 1
[13] = target: T4, human IL-17 receptor subunit E; assay: ELISA, coated receptor; SM17 at 0.08 µg/mL; well 1
[14] = target: T5, human IL-17RB protein (recombinant, R&D …); assay: ELISA, coated receptor; SM17 at 0.08 µg/mL; well 1

OD 450 nm Absorption [1]: 0.25 OD450
OD 450 nm Absorption [2]: 0.22 OD450
OD 450 nm Absorption [3]: 0.21 OD450
OD 450 nm Absorption [4]: 0.08 OD450
OD 450 nm Absorption [5]: 1.26 OD450
OD 450 nm Absorption [6]: 0.02 OD450
OD 450 nm Absorption [7]: 0.02 OD450
OD 450 nm Absorption [8]: -0.04 OD450
Kd [9]: 100 nM
koff [9]: 0.001 s⁻¹
OD 450 nm Absorption [10]: 0.02 OD450
OD 450 nm Absorption [11]: 0.03 OD450
OD 450 nm Absorption [12]: 0 OD450
OD 450 nm Absorption [13]: -0.04 OD450
OD 450 nm Absorption [14]: 0.79 OD450
B1: SM17 (antibody, human IgG4 S228P, kappa, V domains shown)
VH: QVQLVQSGAEVKKPGASVKVSCKASGYTFISYWMNWVRQAPGQGLEWMGRIDPYDSEIQYNQKFKDRVTMTRDTSISTAYMELSRLRSDDTAVYYCARSGGFDWFAYWGQGTLVTVSS
VL: DIQMTQSPSSLSASVGDRVTITCRASENINSNLAWYQQKPGKAPKLLLYDVTNLADGVPSRFSGSGSGTDYTLTISSLQPEDFATYYCQHFWGPPYTFGGGTKVEIKR
notes: other paragraphs and claim 15 call the same entries VH and VL; also called humanized anti-IL17RB monoclonal antibody
